Measured values published in patent US20100086958A1, “NOVEL ENZYME” (priority 2008, published 2010).

Assays:
[1] = Assay of enzyme activity (specific activity, U/mg); format: biochemical; settings: unit = μmol formate oxidized per min in the presence of co-factor; This work
Method: The reaction was initiated by addition of NAD^+. The total volume of the reaction mixture was 1 mL. Specific activity (U/mg enzyme) was defined as number of μmols of product formed per mg enzyme per minute.

[2] = pH profile determination of FDH-catalysed formate oxidation; format: biochemical; settings: pHs as low 4 or as high as 10.5
Method: The pH profiles for BcenFDH1 (Bsp184FDH) and BspFDH2 (Bsp383FDH) catalyzed formate oxidation, shown in FIG. 13(a) and (b), were investigated by Uv/Vis spectrophotometry in a 96-well plate format. […] From this series, 170 μL was transferred into wells of the 96-well plate. 10 μL of the FDHs from a stock solution solution (64.1 μM for BcenFDH1 (Bsp184FDH) and 78.0 μM for BspFDH2 (Bsp383FDH)) were added into each well and equilibrated for 3 min at 30° C. The reaction was initiated by addition of 20 μL of NAD^+ solution from a freshly prepared stock (10 mM) using an 8-channel pipette. The plate was then immediately placed into the plate reader. The plate was shaken for 5 s to ensure thorough mixing, and then time-based measurements were recorded every 15 s for 10 min. The rate of formate oxidation was calculated using an extinction coefficient of 3.38 mM^−1 (for 200 μL).

[3] = Thermal stability study (remaining activity after incubation); format: physicochemical
Method: FIGS. 19 and 20—show the effect of temperature on the stability of the Bsp184FDH and Bsp383FDH enzymes. In FIG. […] In FIG. 20 (1) Bsp184FDH (2.1 mg/mL) and (2) Bsp383FDH (1.5 mg/mL) were incubated at 60° C. and 70° C. for 48 hours period in a similar way. Remaining activities were assayed under standard assay conditions and were expressed as the percentage of activities.
Thermal stability for purified wild-type BcenFDH1 (Bsp184FDH) and BspFDH2 (Bsp383FDH) catalyzed formate oxidation were investigated by Uv/V is spectrophotometry in a 96-well plate format. The results are illustrated in FIGS. 19 and 20. […] In addition, time based-thermal stability for purified wild-type BcenFDH1 (Bsp184FDH) and BspFDH2 (Bsp383FDH) catalyzed formate oxidation were also investigated at 60° C. and 70° C. over 48 hours in a similar way. The samples were spun down briefly to remove any precipitations before use. 10 μL of heat-treated BcenFDH1 and BspFDH2 were added into each well and equilibrated for 3 min at 30° C. after adding 170 μL of 200 mM sodium formate (dissolving in 50 mM sodium phosphate buffer, pH 7.0.) The reaction was initiated by addition of 20 μL of NADP^+ solution from a freshly prepared stock of 20 mM using an 8-channel pipette. The plate was then immediately placed into the plate reader. The plate was shaken for 5 seconds to ensure thorough mixing. Time-based measurements were recorded every 10 s for 10 min. The rate of formate oxidation was calculated using the absorption coefficient of 3.38 mM^−1 (for 200 μL).

[4] = Ketoreductase (KRED101)/BspFDH2 coupled reduction of ethyl 4-chloro-3-oxobutanoate; format: biochemical
Method: NADP^+ (10 mM, 1 mL) and BspFDH2 (17 mg/mL, 500 μL) were then added and the reaction shaken for 30 minutes at room temperature. After 30 minutes, KRED101 (40 mg/mL, 300 μL) was added. The reaction was monitored by GC-MS (Rt˜3.1 minutes). After 15 hr, the reaction mixture was extracted by DCM (3×1 mL) and combined organic phases were dried and the solvent removed to afford ethyl 4-chloro-3-hydroxybutanoate (6 above, >99% conversion based on GC chromatogram and HPLC). The GC-MS data were collected as example 1a. Chiral HPLC was performed on a Chiralcel OB packed column (0.46 cm I.D.×25 cm L; Daicel Chemical Industries, Japan) at 217 nm, with an eluent of n-hexane/2-propanol (9.3:0.7, v/v) at a flow rate of 1 mL/min. IR, vmax (thin film), 3600-3100 (br, O—H), 1731 (s, C═O) cm^−1. ^1H-NMR (400 MHz, Chloroform-d): δ ppm 1.29 (t, J=7.07 Hz, 3H), 2.55-2.70 (m, 2H), 3.62 (dd, J=5.31, 2.78 Hz, 2H) 4.19 (q, J=7.07 Hz, 2H), 4.23-4.30 (m, 1H). ^13C-NMR (400 MHz, Chloroform-d): δ ppm 14.11, 38.41, 48.11, 61.01, 67.92, 171.78. GC-MS (CI^+): m/z Calcd for C6H12O3Cl [M+H]+=167, C6H15O3Cl [M+NH4]^+=184; Found: 167 (M+H)^+, 184 (M+NH4)^+. HPLC-UV/Vis: (tR=7.9 minutes, tS=9.4 minutes), >99% e.e. of S.
D-(S)-4-chloro-3-hydroxybutanoate ethyl ester is a key chiral pharmaceutical intermediate used in the enantioselective synthesis of, for example, slagenin B and C and HMG-CoA reductase inhibitors. […]

B1: Bsp383FDH: wild type FDH from Burkholderia sp 383, Seq ID No: 1, C-terminal His-tagged (protein, listed as Burkholderia sp.)
chain: MATVLCVLYPDPVDGYPPRYVRDAIPVITHYADGQTAPTPAGPPGFQPGELVGCVSGALGLRGYMEAHGHTLIVTSDKDSPDSEFERRLPEADVVISQPFWPAYLTAERIARAPKLKLALTAGIGSDHVDLDAAARARITVAEVTGSNSISVAEHVVMTTLALVRNYLPSHAIAQQGGWNIADCVSRSYDVEGMHFGTVGAGRIGLAVLRRLKPFGLQLHYTQRHRLDASIEQELGLTYHADAASLASAVDIVNLQIPLYPSTEHLFDAAMIARMKRGAYLINTARAKLVDRDAVVNALTSGHLAGYGGDVWFPQPAPADHPWRTMPFNGMTPHISGTSLSAQARYAAGTLEILQCWFDGKPIRNEYLIVDGGTLAGTGAQSYRLT
modifications: C-terminal His tag
[1]
  activity with NADP^+: 8.64 U/mg
  activity with NAD^+: 1.09 U/mg
[2]
  activity at extreme pH: highly active
[3]
  temperature at which the enzymes denature: 80 °C
[3]; 55° C. for 2 hours
  activity lost upon incubation: no activity was lost
[3]; room temperature for weeks
  stability at room temperature: stable
[4]; coupled with KRED101
  reaction complete within: ≤ 30 min
[4]; coupled with KRED101, NADPH regeneration, GC and HPLC
  conversion of ethyl 4-chloro-3-oxobutanoate to ethyl 4-chloro-3-hydroxybutanoate: > 99%
